Reference: patent publication US20090214574A1 (AFFIMED, published 2009)

B1: affinity matured anti-CD16A scFv 4-LS14 (scFv)
scFv: EVQLVQSGAEVKKPGESLKVSCKASGYTFTSYYMHWVRQAPGQGLEWMGIINPSGGSTSYAQKFQGRVTMTRDTSTSTVYMELSSLRSEDTAVYYCARGSAYYYDFADYWGQGTLVTVSSGSASAPTLKLEEGEFSEARVSYELTQPPSVSVTPGQTATITCGANDIGKRNVHWYQQRPGQSPVLVIYQDNKRPSGIPERFSGSNSGNTATLTISGTQAMDEADYYCQVWDNYSVLFGGGTKLTVLGQPKAAPSVTLFPPSAAAGSEQKLISEEDLNSHHHHHH
notes: IMAC-purified from pSKK2
B2: affinity matured anti-CD16A scFv 3-LS49 (scFv)
scFv: EVQLVQSGAEVKKPGESLKVSCKASGYTFTSYYMHWVRQAPGQGLEWMGIINPSGGSTSYAQKFQGRVTMTRDTSTSTVYMELSSLRSEDTAVYYCARGSAYYYDFADYWGQGTLVTVSSGSASAPTLKLEEGEFSEARVQPVLTQPLSVSVAPGQTARITCGGNNIGSKNVHWYQQKPGQAPVLVIYRDSSRPSGIPERLSGSNSGDTATLTISRAQAGDEADYYCQVWDDYIVVFGGGTKLTVLGQPKAAPPVTLFPPSAAAGSEQKLISEEDLNSHHHHHH
notes: IMAC-purified from pSKK2
B3: affinity matured anti-CD16A scFv 3-LB6 (scFv)
scFv: EVQLVQSGAEVKKPGESLKVSCKASGYTFTSYYMHWVRQAPGQGLEWMGIINPSGGSTSYAQKFQGRVTMTRDTSTSTVYMELSSLRSEDTAVYYCARGSAYYYDFADYWGQGTLVTVSSGSASAPTLKLEEGEFSEARVQAVLTQPPSVSVAPGQTARIPCEGNNIGSKNVHWYRQKPGQVPVLVMYDDSDRPSGIPERFSGSNSGNTATLTISGTQAMDEADYYCQVWDNYSVLFGGGTKLTVLGQPKAAPSVTLFPPSAAAGSEQKLISEEDLNSHHHHHH
notes: IMAC-purified from pSKK2
B4: affinity matured anti-CD16A scFv 3-LB3 (scFv)
scFv: EVQLVQSGAEVKKPGESLKVSCKASGYTFTSYYMHWVRQAPGQGLEWMGIINPSGGSTSYAQKFQGRVTMTRDTSTSTVYMELSSLRSEDTAVYYCARGSAYYYDFADYWGQGTLVTVSSGSASAPTLKLEEGEFSEARVSYELTQPLSESVAQGQTARITCGGNNIESRNVHWYQQKPGQAPVLVIYRDNNRPSGIPERFSGSNSGNMATLTISRAQAGDAADYYCQVWDNYTVLFGGGTKLTVLGQPKAAPSVTLFPPSAAAGSEQKLISEEDLNSHHHHHH
notes: IMAC-purified from pSKK2
B5: affinity matured anti-CD16A scFv 3-LB5 (scFv)
scFv: EVQLVQSGAEVKKPGESLKVSCKASGYTFTSYYMHWVRQAPGQGLEWMGIINPSGGSTSYAQKFQGRVTMTRDTSTSTVYMELSSLRSEDTAVYYCARGSAYYYDFADYWGQGTLVTVSSGSASAPTLKLEEGEFSEARVSYELTQPPSVAVAPGKTARITCGGNNIGSKNVHWYQQKPGQAPVLVIYRDSNRPSGIPERFSGSNSGNTATLTISRAQAGDEADFYCQVWDNYIVLFGGGTKLTVLGQPKAAPSVTLFPPSAAAGSEQKLISEEDLNSHHHHHH
notes: IMAC-purified from pSKK2; oligomeric state not analysed

Tests used:
[1] = molecular target: T1, NKp46-Fc (UniProt O76036 22-258, limits assumed); experiment: Western blot on NKp46-Fc
T1 construct: Negative control protein; also called NKp46-Fc control protein; not shown: Fc part, not described
Protocol: For further characterization all of the anti-CD16A scFv were tested for binding in Western Blot on recombinant CD16A-Fc and NKp46-Fc.
The proteins were transferred on a nitrocellulose membrane by electroblotting. After staining with Ponceau S, the membrane was cut into strips of 5 mm width. Each nitrocellulose strip was individually incubated with scFv (4 μg/ml) in PBS, 0.1% tween, 2% skimmed milk. Detection was carried out with the anti-Penta His HRP-conjugate (1 μg/mL) using diaminobenzidine (DAB) as a peroxidase substrate. […] As an additional positive control, a goat anti-human IgG HRP-conjugate (0.16 μg/mL) was used for detection of the Fc portion of the fusion proteins.

[2] = molecular target: T2, human CD16A-Fc^48R/158V fusion protein (human, UniProt P08637 17-208, limits assumed); experiment: SPR, BIAcore 2000, CD16A-Fc immobilized on CM5, koff/kon
T2 construct: Secreted soluble fusion made in HEK-293 cells; also called CD16-Fc; CD16A Fc-fusion protein; not shown: Fc portion of human IgG1
Protocol: (§1) The affinity constants (KD values) of the scFv were determined by SPR using the BIAcore 2000 biosensor system (Amersham-Pharmacia). The CD16A-Fc fusion protein and BSA used as a negative control were immobilized on the carboxymethyldextran-coated sensor chip CM5 using conventional NHS/EDC chemistry for the amine coupling procedure (BIAcore). Purified scFvs were diluted in HBS-EP buffer (BIAcore, Uppsala, Sweden). Binding data was generated by passing varying concentrations of the scFv antibodies (100 nM, 200 nM, 400 nM, 800 nM and 1600 nM) over the immobilized antigen. […] All SPR measurements were performed at a constant flow rate of 20 μL/min in HBS-EP buffer at 25° C. Each injected sample (100 μl) was in contact with antigen for 5 minutes. The dissociation was followed for 30 minutes. After each cycle, the surface of the sensor chip was flushed with HBS-EP buffer. Signals from the control channel coated with BSA were automatically subtracted. Kinetic constants were calculated according to the 1/1 Langmuir binding model using the BIAevaluation version 3.0 software (BIAcore).

[3] = molecular target: T2, human CD16A-Fc^48R/158V fusion protein; experiment: SPR, BIAcore 2000, CD16A-Fc immobilized on CM5, 1:1 Langmuir
Protocol: as §1

[4] = molecular target: T3, commercially available recombinant CD16B (Allele NA-2; BSA free; RD Systems) (UniProt O75015 17-200, limits assumed); experiment: ELISA on recombinant CD16B coated at 80 nM; scFv detected with anti-c-Myc-HRP (10 µg/ml)
T3 construct: also called recombinant CD16B-Fc
Protocol: FIG. 3: ELISA on recombinant CD16A-Fc and CD16B. Recombinant CD16A-Fc and CD16B proteins were coated at 80 nM in 0.1 M NaHCO₃, pH 8.8. Wells were blocked with PBS, 2% skimmed milk. The binding of the scFv to the recombinant proteins and to gp34-Fc (negative control) was detected using an anti-c-Myc-HRP conjugate (10 μg/ml). […] Coated recombinant CD16B was directly detected by staining with an anti-His-HRP (1 μg/mL) and coating of the Fc-Fusion proteins was tested by an anti-human IgG-HRP conjugate (0.5 μg/mL). As HRP-substrate, 50 μL of TMB were used. After termination of the reaction with 50 μL 0.5 M H₂SO₄, absorbance was measured at 450 nm.
In order to generate further supporting data concerning the CD16A specificity of the scFvs, an ELISA was performed using the CD16A-Fc fusion protein (Example 1) and commercially available recombinant CD16B-Fc (Allele NA-2; BSA free; RD Systems). A gp34-Fc fusion protein was used as a negative control. The recombinant proteins were coated overnight at a concentration of 80 nM in 100 mM NaHCO₃ at pH 8.8.
Detection of scFv bound to the recombinant proteins was carried out by using an anti-c-myc-HRP conjugate (10 μg/ml). […] Binding to the recombinant CD16B was tested by directly staining with anti-His-HRP (1 μg/mL) and binding to the Fc-Fusion proteins was tested by an anti-human IgG-HRP conjugate (0.15 μg/mL).

[5] = molecular target: T4, native CD16B on human polymorphonuclear cells (neutrophilic granulocytes) (human, UniProt O75015 17-200); experiment: flow cytometry on freshly isolated PMN; scFv, anti-(His)6 MAb, FITC goat anti-mouse IgG; MFI minus secondary reagents alone
T4 construct: whole, on cells; also called PMN; CD16B-positive granulocytes
Protocol: Polymorphonuclear cells (PMN) and natural killer (NK) cells were isolated from peripheral blood from a healthy donor and used for flow cytometric staining and analysis. […] All scFv were used at a concentration of 50 μg/mL and were detected with 10 μg/mL anti-(His)₆ followed by 15 μg/mL FITC-conjugated goat anti-mouse IgG. The mean fluorescence intensities obtained from flow cytometric analysis were corrected by subtracting the fluorescence values from cell stainings with the secondary reagents alone and were plotted in the diagram.
Enrichment of NK cells was performed by negative selection as described above.

[6] = molecular target: T5, human CD16B (NA-2 allele) on stably transfected HEK-293 cells (293/CD16B) (human, UniProt O75015 17-200); experiment: flow cytometry on 293/CD16B cells; scFv, anti-hexa His MAb 13/45/31-2, FITC goat anti-mouse IgG; MFI minus secondary reagents alone
T5 construct: whole, on cells
Protocol: (§2) The mean fluorescence intensities obtained from flow cytometric analysis were corrected by subtracting the fluorescence values from cell stainings with the secondary reagents alone, and plotted in the diagram.
(§3) For flow cytometric analysis, the following cell lines were used: BW and BW/CD16A transfectants were cultured as described previously. […] The transient transfections were performed using the calcium phosphate method as described in Example 1 and were used for flow cytometric staining and analysis two days after transient transfection. Flow cytometric staining and analysis was performed as essentially described before.

[7] = molecular target: T6, NKp46 extracellular domain fused to zeta chain, on transiently transfected HEK-293 cells (293/NKp46) (human, UniProt O76036 22-258; P20963 31-164); experiment: flow cytometry on 293/NKp46 cells; scFv, anti-hexa His MAb 13/45/31-2, FITC goat anti-mouse IgG; MFI minus secondary reagents alone
T6 construct: extracellular domain;domain: transmembrane and cytoplasmic domain; On the cell surface; also called NKp46-transfectants; pcDNA3-NKp46-zeta
Protocol: as §2, §3

[8] = molecular target: T2, human CD16A-Fc^48R/158V fusion protein; experiment: SPR, kinetic and steady state analysis
Protocol: as §1

[9] = molecular target: T2, human CD16A-Fc^48R/158V fusion protein; experiment: SPR, steady state analysis (column Keq)
Protocol: as §1

T4 sequence (O75015 17-200): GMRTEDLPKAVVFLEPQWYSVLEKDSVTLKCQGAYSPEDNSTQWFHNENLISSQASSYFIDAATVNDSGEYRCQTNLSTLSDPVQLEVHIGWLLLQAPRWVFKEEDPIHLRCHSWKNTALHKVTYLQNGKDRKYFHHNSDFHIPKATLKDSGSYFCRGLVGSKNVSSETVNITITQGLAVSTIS
T6 sequence (O76036 other isoform, or with tags, fused parts or gaps limits assumed): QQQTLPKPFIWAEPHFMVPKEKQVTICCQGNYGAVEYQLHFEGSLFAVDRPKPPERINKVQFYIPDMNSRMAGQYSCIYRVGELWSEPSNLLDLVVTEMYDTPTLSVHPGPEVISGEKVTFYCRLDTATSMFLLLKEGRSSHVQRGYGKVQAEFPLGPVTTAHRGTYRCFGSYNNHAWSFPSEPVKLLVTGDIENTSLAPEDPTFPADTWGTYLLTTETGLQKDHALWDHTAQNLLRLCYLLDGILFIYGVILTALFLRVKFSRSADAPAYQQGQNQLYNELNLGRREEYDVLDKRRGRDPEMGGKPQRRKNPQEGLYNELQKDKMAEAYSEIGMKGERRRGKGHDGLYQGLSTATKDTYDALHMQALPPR
T2 sequence (P08637 17-208 L66R/F176V limits assumed): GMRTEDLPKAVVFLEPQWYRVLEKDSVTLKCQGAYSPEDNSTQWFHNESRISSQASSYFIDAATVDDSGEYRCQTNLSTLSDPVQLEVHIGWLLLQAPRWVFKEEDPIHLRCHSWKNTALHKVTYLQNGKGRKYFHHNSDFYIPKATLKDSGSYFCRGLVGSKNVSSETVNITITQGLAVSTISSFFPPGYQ
T1 sequence (O76036 22-258 limits assumed): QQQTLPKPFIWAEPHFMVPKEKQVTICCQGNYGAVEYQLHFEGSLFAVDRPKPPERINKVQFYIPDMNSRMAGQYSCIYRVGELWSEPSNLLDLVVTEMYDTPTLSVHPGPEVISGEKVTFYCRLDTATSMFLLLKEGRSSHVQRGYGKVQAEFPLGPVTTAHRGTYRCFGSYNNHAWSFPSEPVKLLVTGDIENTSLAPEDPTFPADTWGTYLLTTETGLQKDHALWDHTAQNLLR
T5 sequence (O75015 17-200 N65S): as the sequence (O75015 17-200) above, with N49S counted along it
T3 sequence (O75015 17-200 N65S limits assumed): as the sequence (O75015 17-200) above, with N49S counted along it

Row | Binder | binding result [1] | Kd [2] [nM] | koff [3] [s⁻¹] | kon [3] [M⁻¹ s⁻¹] | binding result [4] | binding result [5] | binding result [6] | binding result [7] | fold improvement of affinity over parental clone 50NI [8] [fold] | Kd [9] [nM]
1 | B1 | no binding (tested: 4 µg/ml) | 109 | 0.00557 | 50900 | no binding (tested: not given) | no binding (tested: 50 µg/mL) | no binding (tested: 50 µg/mL) | no binding (tested: 50 µg/mL) | – | –
2 | B2 | no binding (tested: 4 µg/ml) | 137 | 0.00401 | 29300 | no binding (tested: not given) | no binding (tested: 50 µg/mL) | no binding (tested: 50 µg/mL) | no binding (tested: 50 µg/mL) | – | –
3 | B3 | no binding (tested: 4 µg/ml) | 119 | 0.00652 | 54800 | no binding (tested: not given) | no binding (tested: 50 µg/mL) | no binding (tested: 50 µg/mL) | no binding (tested: 50 µg/mL) | > 20 | 106
4 | B4 | no binding (tested: 4 µg/ml) | 138 | 0.00297 | 21600 | no binding (tested: not given) | no binding (tested: 50 µg/mL) | no binding (tested: 50 µg/mL) | no binding (tested: 50 µg/mL) | – | –
5 | B5 | no binding (tested: 4 µg/ml) | 40.5 | 0.00297 | 73300 | no binding (tested: not given) | no binding (tested: 50 µg/mL) | no binding (tested: 50 µg/mL) | no binding (tested: 50 µg/mL) | – | –
